The values below come from patent publication US20110294728.

Like-named read-outs stand apart in the source and are kept apart here.

One data set has as its system HIV-1 integrase (HIV-1). Put plainly: FP.
The target in data set [1] is monomeric p51 subunit of HIV-1 RT (UniProt P03366). Description: stopped-flow, FRET between Trp of RT and bis-ANS, without PAW.
For data set [2] the target is unchanged. Description: stopped-flow, FRET between Trp of RT and bis-ANS, RT incubated with PAW.

With 21-mer U5 LTR end oligonucleotide, the IC50 (in general, the concentration that inhibits the measured activity by half) in the data set with HIV-1 integrase (HIV-1) came to 15.2 µM; with HIV-1 integrase (HIV-1) (3'-processing active, value is IC50 of PAW peptide, 10 mM MgCl2, 37 C), 12.7 µM.

Take monomeric p66 subunit of HIV-1 RT: the figures for the “kdis (dissociation rate constant of the RT heterodimer in 10% acetonitrile)” value in data set [1] and in data set [2] were “a dissociation rate constant kdis of 5.30±0.01 s^-1” and “kdis=1.42±0.007 s^-1”, respectively.
